Results published in US20230250154A1 (CYTONICS, published 2023).

Experiments:
Assay in all cases: cell-based or functional assay
[1] = target: MMP13 (human, UniProt P45452 104-471, limits assumed)
[2] = target: T1, ADAMTS5 (human, UniProt Q9UNA0 262-622, limits assumed)
T1 sequence (looked up): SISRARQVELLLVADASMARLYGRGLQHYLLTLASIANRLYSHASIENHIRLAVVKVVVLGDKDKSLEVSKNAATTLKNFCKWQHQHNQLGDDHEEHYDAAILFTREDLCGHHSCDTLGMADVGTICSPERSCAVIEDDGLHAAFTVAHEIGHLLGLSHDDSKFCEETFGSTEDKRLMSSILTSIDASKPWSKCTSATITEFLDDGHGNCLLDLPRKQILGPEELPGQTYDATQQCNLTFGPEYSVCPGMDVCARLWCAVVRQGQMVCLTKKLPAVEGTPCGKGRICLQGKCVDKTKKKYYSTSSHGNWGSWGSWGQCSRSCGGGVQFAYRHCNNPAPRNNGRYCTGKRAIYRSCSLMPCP

[3] = target: T2, ADAMTS4 (human, UniProt O75173 213-685, limits assumed)
T2 sequence (looked up): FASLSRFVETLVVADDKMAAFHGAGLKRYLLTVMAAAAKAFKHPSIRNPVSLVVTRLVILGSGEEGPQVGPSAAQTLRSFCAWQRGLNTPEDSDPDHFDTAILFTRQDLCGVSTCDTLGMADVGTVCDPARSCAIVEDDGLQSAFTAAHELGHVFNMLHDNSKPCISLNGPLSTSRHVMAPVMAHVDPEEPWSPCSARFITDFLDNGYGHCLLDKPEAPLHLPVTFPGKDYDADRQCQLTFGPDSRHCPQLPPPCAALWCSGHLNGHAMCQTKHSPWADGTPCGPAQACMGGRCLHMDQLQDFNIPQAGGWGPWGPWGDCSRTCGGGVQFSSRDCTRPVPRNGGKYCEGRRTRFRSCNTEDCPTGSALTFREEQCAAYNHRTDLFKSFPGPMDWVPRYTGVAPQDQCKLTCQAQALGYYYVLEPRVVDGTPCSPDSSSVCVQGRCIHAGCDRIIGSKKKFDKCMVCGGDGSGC

B1: Variant A2M, bait region SEQ ID NO 104 (other)
chain: SVSGKPQYMVLVPSLLHTETTEKGCVLLSYLNETVTVSASLESVRGNRSLFTDLEAENDVLHCVAFAVPKSSSNEEVMFLTVQVKGPTQEFKKRTTVMVKNEDSLVFVQTDKSIYKPGQTVKFRVVSMDENFHPLNELIPLVYIQDPKGNRIAQWQSFQLEGGLKQFSFPLSSEPFQGSYKVVVQKKSGGRTEHPFTVEEFVLPKFEVQVTVPKIITILEEEMNVSVCGLYTYGKPVPGHVTVSICRKYSDASDCHGEDSQAFCEKFSGQLNSHGCFYQQVKTKVFQLKRKEYEMKLHTEAQIQEEGTVVELTGRQSSEITRTITKLSFVKVDSHFRQGIPFFGQVRLVDGKGVPIPNKVIFIRGNEANYYSNATTDEHGLVQFSINTTNVMGTSLTVRVNYKDRSPCYGYQWVSEEHEEAHHTAYLVFSPSKSFVHLEPMSHELPCGHTQTVQAHYILNGGTLLGLKKLSFYYLIMAKGGIVRTGTHGLLVKQEDMKGHFSISIPVKSDIAPVARLLIYAVLPTGDVIGDSAKYDVENCLANKVDLSFSPSQSLPASHAHLRVTAAPQSVCALRAVDQSVLLMKPDAELSASSVYNLLPEKDLTGFPGPLNDQDDEDCINRHNVYINGITYTPVSSTNEKDMYSFLEDMGLKAFTNSKIRKPKMCPQLEQYEMHGPEGLRVGESESEGGGGGSLLGEFEVEGGFAGLPNGKLRKYFPETWIWDLVVVNSAGVAEVGVTVPDTITEWKAGAFCLSEDAGLGISSTASLRAFQPFFVELTMPYSVIRGEAFTLKATVLNYLPKCIRVSVQLEASPAFLAVPVEKEQAPHCICANGRQTVSWAVTPKSLGNVNFTVSAEALESQELCGTEVPSVPEHGRKDTVIKPLLVEPEGLEKETTFNSLLCPSGGEVSEELSLKLPPNVVEESARASVSVLGDILGSAMQNTQNLLQMPYGCGEQNMVLFAPNIYVLDYLNETQQLTPEIKSKAIGYLNTGYQRQLNYKHYDGSYSTFGERYGRNQGNTWLTAFVLKTFAQARAYIFIDEAHITQALIWLSQRQKDNGCFRSSGSLLNNAIKGGVEDEVTLSAYITIALLEIPLTVTHPVVRNALFCLESAWKTAQEGDHGSHVYTKALLAYAFALAGNQDKRKEVLKSLNEEAVKKDNSVHWERPQKPKAPVGHFYEPQAPSAEVEMTSYVLLAYLTAQPAPTSEDLTSATNIVKWITKQQNAQGGFSSTQDTVVALHALSKYGAATFTRTGKAAQVTIQSSGTFSSKFQVDNNNRLLLQQVSLPELPGEYSMKVTGEGCVYLQTSLKYNILPEKEEFPFALGVQTLPQTCDEPKAHTSFQISLSVSYTGSRSASNMAIVDVKMVSGFIPLKPTVKMLERSNHVSRTEVSSNHVLIYLDKVSNQTLSLFFTVLQDVPVRDLKPAIVKVYDYYETDEFAIAEYNAPCSKDLGNADYKDDDDKGASHHHHHH
Protease Inhibition (% of WT) [1]: 80 % of WT | Protease Inhibition (% of WT) [2]: 99 % of WT | Protease Inhibition (% of WT) [3]: 100 % of WT
